# PMC7137648, “Molecular and Cellular Interactions of Scavenger Receptor SR-F1 With Complement C1q Provide Insights Into Its Role in the Clearance of Apoptotic Cells” (Frontiers in Immunology, 2020)
# B1: recombinant human calreticulin (CRT) (natural protein, UniProt P27797 18-417, looked up)
# chain: EPAVYFKEQFLDGDGWTSRWIESKHKSDFGKFVLSSGKFYGDEEKDKGLQTSQDARFYALSASFEPFSNKGQTLVVQFTVKHEQNIDCGGGYVKLFPNSLDQTDMHGDSEYNIMFGPDICGPGTKKVHVIFNYKGKNVLINKDIRCKDDEFTHLYTLIVRPDNTYEVKIDNSQVESGSLEDDWDFLPPKKIKDPDASKPEDWDERAKIDDPTDSKPEDWDKPEHIPDPDAKKPEDWDEEMDGEWEPPVIQNPEYKGEWKPRQIDNPDYKGTWIHPEIDNPEYSPDPSIYAYDNFGVLGLDLWQVKSGTIFDNFLITNDEAYAEEFGNETWGVTKAAEKQMKDKQDEEQRLKEEEEDKKRKEEEEAEDKEDDEDKDEDEEDEEDKEEDEEEDVPGQAKDEL
# notes: calreticulin, human, recombinant; MW = 49,431 g/mol used for quantification; In the endocytosis assay the protein was labelled with Alexa Fluor 568 succinimidyl ester; also called rCRT; AF568-rCRT
# B2: SR-F1(20-421), recombinant soluble SR-F1 ectodomain (domain or fragment, human)
# chain: SELDPKGQHVCVASSPSAELQCCAGWRQKDQECTIPICEGPDACQKDEVCVKPGLCRCKPGFFGAHCSSRCPGQYWGPDCRESCPCHPHGQCEPATGACQCQADRWGARCEFPCACGPHGRCDPATGVCHCEPGWWSSTCRRPCQCNTAAARCEQATGACVCKPGWWGRRCSFRCNCHGSPCEQDSGRCACRPGWWGPECQQQCECVRGRCSAASGECTCPPGFRGARCELPCPAGSHGVQCAHSCGRCKHNEPCSPDTGSCESCEPGWNGTQCQQPCLPGTFGESCEQQCPHCRHGEACEPDTGHCQRCDPGWLGPRCEDPCPTGTFGEDCGSTCPTCVQGSCDTVTGDCVCSAGYWGPSCNASCPAGFHGNNCSVPCECPEGLCHPVSGSCQPGSGSRDTLIK
# modifications: N-linked glycans at Asn 289, 382 and 393
# notes: scavenger receptor class F member 1 (SR-F1, SREC-I, SCARF1), human, extracellular domain with EGF-like repeats 1-10; Mass 49.1 kDa by MALDI-TOF (polypeptide 44.0 kDa plus N-glycans); also called SR-F1 extracellular domain; not shown: His8, C-terminal, kept
# What was measured:
# Settings in all cases: both partners purified
# complement protein C1q [1] = biological target: T1, complement protein C1q (human, UniProt P02745 23-245; P02746 28-253; P02747 29-245); assay: SPR; SR-F1(20-421), SR-F1(20-353) or SR-F1(20-221) injected at five increasing concentrations (multiple cycle kinetics) over covalently immobilized C1q (about 16,000 RU, CM5, amine coupling), BSA reference surface, TBS-Ca-P pH 7.4 (2 mM CaCl2), 20 μl/min, 25°C; global fit, 1:1 Langmuir model; apparent KD
# T1 construct: complement C1q A-chain, human; C1q is 18 polypeptide chains assembled into 6 triple helices of A-chain, B-chain and C-chain (460 kDa); complement C1q B-chain, human; complement C1q C-chain, human; also called whole C1q; serum C1q; source: purified from human serum; copies: 6 + 6 + 6
# [2] = biological target: B1; assay: SPR; SR-F1(20-353) and SR-F1(20-221) fragments with CRT (Figure S7); which partner was immobilised is not told in the text shown
# [3] = biological target: B2; assay: SPR; CRT injected at five increasing concentrations (single cycle kinetics) over covalently immobilized SR-F1(20-421) (1,845 RU) in TBS-Ca-P at 30 μl/min, 25°C; global fit, two-state reaction model; apparent KD
# [4] = biological target: B2; assay: SPR; reverse configuration: soluble SR-F1(20-421) over immobilized CRT (3,320 RU); apparent KD; data not shown
# complement protein C1q [5] = biological target: T1, complement protein C1q; assay: SPR; N-glycosylation site mutants of SR-F1(20-421) with C1q (Figures S5A-C), n = 2; which partner was immobilised is not told in the text shown; apparent affinity
# T1 sequence (P02745 23-245, chain 1 of 3): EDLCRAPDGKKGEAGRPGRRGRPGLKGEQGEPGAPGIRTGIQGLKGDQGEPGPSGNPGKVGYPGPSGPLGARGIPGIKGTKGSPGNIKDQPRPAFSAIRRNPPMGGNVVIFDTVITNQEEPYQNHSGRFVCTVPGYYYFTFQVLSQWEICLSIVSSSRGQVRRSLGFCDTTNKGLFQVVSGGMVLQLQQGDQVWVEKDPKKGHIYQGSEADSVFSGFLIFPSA
# T1 sequence (P02746 28-253, chain 2 of 3): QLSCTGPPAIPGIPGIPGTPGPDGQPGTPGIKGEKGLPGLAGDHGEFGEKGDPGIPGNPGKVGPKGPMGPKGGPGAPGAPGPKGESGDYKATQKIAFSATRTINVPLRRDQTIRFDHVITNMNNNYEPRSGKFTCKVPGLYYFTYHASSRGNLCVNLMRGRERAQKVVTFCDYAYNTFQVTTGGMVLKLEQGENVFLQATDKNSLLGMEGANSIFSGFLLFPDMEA
# T1 sequence (P02747 29-245, chain 3 of 3): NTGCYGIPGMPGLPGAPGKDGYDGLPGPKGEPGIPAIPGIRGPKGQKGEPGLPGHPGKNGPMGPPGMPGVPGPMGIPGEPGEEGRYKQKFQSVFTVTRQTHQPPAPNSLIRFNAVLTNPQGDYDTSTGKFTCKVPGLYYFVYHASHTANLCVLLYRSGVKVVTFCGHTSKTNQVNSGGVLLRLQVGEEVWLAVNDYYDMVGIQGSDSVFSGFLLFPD
Kd (complement protein C1q [1]),koff (complement protein C1q [1]),kon (complement protein C1q [1]),"t1/2 (half-life of the complex, ln2/kd) (complement protein C1q [1])",binding result [2],Kd [3],Kd [4],Kd (complement protein C1q [5]),Binder
17.7 nM,0.00303 s⁻¹,185000 M⁻¹ s⁻¹,3.82 min,binds,,,,"SR-F1(20-221) (domain or fragment, human, SR-F1 (SCARF1), human, EGF-like repeats 1-5, lacks EGF-like modules 6 to 10 and the three N-glycosylation sites; construct encodes the 221 first residues, named 20-221 as secreted protein; kept here by the cloning as described; The Leu-Ile-Lys and 8 His tail is printed for the parent plasmid only; also called SR-F1(1-221); SR-F(20-221); not shown: His8, C-terminal, kept) SELDPKGQHVCVASSPSAELQCCAGWRQKDQECTIPICEGPDACQKDEVCVKPGLCRCKPGFFGAHCSSRCPGQYWGPDCRESCPCHPHGQCEPATGACQCQADRWGARCEFPCACGPHGRCDPATGVCHCEPGWWSSTCRRPCQCNTAAARCEQATGACVCKPGWWGRRCSFRCNCHGSPCEQDSGRCACRPGWWGPECQQLIK"
,,,,,345 ± 8 nM,770 nM,,B1
186 nM,0.00126 s⁻¹,6840 M⁻¹ s⁻¹,9.17 min,,,,,B2
,,,,,,,589 ± 20 nM,"SR-F1(20-421) N393Q (domain or fragment, human, N-linked glycans on the two remaining sites (Asn 289, Asn 382), SR-F1 (SCARF1), human, ectodomain as m1 with Asn 393 replaced by Gln; also called SR-F1 N393Q; N393Q mutant) SELDPKGQHVCVASSPSAELQCCAGWRQKDQECTIPICEGPDACQKDEVCVKPGLCRCKPGFFGAHCSSRCPGQYWGPDCRESCPCHPHGQCEPATGACQCQADRWGARCEFPCACGPHGRCDPATGVCHCEPGWWSSTCRRPCQCNTAAARCEQATGACVCKPGWWGRRCSFRCNCHGSPCEQDSGRCACRPGWWGPECQQQCECVRGRCSAASGECTCPPGFRGARCELPCPAGSHGVQCAHSCGRCKHNEPCSPDTGSCESCEPGWNGTQCQQPCLPGTFGESCEQQCPHCRHGEACEPDTGHCQRCDPGWLGPRCEDPCPTGTFGEDCGSTCPTCVQGSCDTVTGDCVCSAGYWGPSCNASCPAGFHGNQCSVPCECPEGLCHPVSGSCQPGSGSRDTLIK"
,,,,,,,604 nM,"SR-F1(20-421) N382Q (domain or fragment, human, N-linked glycans on the two remaining sites (Asn 289, Asn 393), SR-F1 (SCARF1), human, ectodomain as m1 with Asn 382 replaced by Gln; also called SR-F1 N382Q; N382Q mutant) SELDPKGQHVCVASSPSAELQCCAGWRQKDQECTIPICEGPDACQKDEVCVKPGLCRCKPGFFGAHCSSRCPGQYWGPDCRESCPCHPHGQCEPATGACQCQADRWGARCEFPCACGPHGRCDPATGVCHCEPGWWSSTCRRPCQCNTAAARCEQATGACVCKPGWWGRRCSFRCNCHGSPCEQDSGRCACRPGWWGPECQQQCECVRGRCSAASGECTCPPGFRGARCELPCPAGSHGVQCAHSCGRCKHNEPCSPDTGSCESCEPGWNGTQCQQPCLPGTFGESCEQQCPHCRHGEACEPDTGHCQRCDPGWLGPRCEDPCPTGTFGEDCGSTCPTCVQGSCDTVTGDCVCSAGYWGPSCQASCPAGFHGNNCSVPCECPEGLCHPVSGSCQPGSGSRDTLIK"
32.4 nM,0.00209 s⁻¹,70000 M⁻¹ s⁻¹,5.52 min,binds,,,,"SR-F1(20-353) (domain or fragment, human, N-linked glycan at Asn 289, SR-F1 (SCARF1), human, EGF-like repeats 1-8; kept here by the cloning as described; The Leu-Ile-Lys and 8 His tail is printed for the parent plasmid only; not shown: His8, C-terminal, kept) SELDPKGQHVCVASSPSAELQCCAGWRQKDQECTIPICEGPDACQKDEVCVKPGLCRCKPGFFGAHCSSRCPGQYWGPDCRESCPCHPHGQCEPATGACQCQADRWGARCEFPCACGPHGRCDPATGVCHCEPGWWSSTCRRPCQCNTAAARCEQATGACVCKPGWWGRRCSFRCNCHGSPCEQDSGRCACRPGWWGPECQQQCECVRGRCSAASGECTCPPGFRGARCELPCPAGSHGVQCAHSCGRCKHNEPCSPDTGSCESCEPGWNGTQCQQPCLPGTFGESCEQQCPHCRHGEACEPDTGHCQRCDPGWLGPRCEDPCPTGTFGEDCGSLIK"
